Series [1] concerns the target recombinant F-WT DRADA protein (full-length 140 kD human DRADA protein carrying an epitope-tag peptide FLAG at the NH2-terminal) (human).
Series [2] concerns the target T1, DRADA (dsRNA adenosine deaminase, purified 93/88/83 kD forms) (Bos taurus) (UniProt F1MUM9).
T1 sequence: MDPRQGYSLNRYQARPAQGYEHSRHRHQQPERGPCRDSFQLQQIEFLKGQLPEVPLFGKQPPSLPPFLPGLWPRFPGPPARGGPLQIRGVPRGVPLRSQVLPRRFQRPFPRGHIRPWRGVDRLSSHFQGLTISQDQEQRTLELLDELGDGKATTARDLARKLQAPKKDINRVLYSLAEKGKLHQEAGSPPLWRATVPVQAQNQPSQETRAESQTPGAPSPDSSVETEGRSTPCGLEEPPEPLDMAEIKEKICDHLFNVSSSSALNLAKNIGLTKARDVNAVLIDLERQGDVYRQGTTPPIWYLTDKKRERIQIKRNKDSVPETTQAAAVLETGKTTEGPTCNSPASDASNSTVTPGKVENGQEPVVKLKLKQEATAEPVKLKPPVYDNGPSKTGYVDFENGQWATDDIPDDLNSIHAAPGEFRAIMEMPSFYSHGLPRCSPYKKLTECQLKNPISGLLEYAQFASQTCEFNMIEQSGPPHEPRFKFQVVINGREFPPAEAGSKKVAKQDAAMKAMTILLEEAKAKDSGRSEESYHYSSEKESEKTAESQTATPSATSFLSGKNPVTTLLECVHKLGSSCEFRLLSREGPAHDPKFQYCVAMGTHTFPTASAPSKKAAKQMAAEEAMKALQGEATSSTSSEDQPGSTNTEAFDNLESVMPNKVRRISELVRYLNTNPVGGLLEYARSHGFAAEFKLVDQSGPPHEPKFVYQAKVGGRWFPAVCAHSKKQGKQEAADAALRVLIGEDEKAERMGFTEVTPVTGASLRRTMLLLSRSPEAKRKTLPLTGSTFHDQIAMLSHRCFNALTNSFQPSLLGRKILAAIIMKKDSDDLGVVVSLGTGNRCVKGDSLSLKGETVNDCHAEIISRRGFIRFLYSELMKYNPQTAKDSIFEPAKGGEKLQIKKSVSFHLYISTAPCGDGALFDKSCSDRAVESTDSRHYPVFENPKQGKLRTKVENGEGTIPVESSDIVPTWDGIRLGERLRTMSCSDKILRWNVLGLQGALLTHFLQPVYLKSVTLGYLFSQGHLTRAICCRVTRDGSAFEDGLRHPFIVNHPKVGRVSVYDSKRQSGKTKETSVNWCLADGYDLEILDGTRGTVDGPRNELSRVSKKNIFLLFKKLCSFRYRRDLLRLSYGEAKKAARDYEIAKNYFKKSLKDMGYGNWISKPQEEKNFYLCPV
As to conditions: assay not described; species/form of DRADA not stated in the passage.

Series [3] deals with T2, F-WT DRADA (Homo sapiens) (UniProt P55265).
T2 sequence: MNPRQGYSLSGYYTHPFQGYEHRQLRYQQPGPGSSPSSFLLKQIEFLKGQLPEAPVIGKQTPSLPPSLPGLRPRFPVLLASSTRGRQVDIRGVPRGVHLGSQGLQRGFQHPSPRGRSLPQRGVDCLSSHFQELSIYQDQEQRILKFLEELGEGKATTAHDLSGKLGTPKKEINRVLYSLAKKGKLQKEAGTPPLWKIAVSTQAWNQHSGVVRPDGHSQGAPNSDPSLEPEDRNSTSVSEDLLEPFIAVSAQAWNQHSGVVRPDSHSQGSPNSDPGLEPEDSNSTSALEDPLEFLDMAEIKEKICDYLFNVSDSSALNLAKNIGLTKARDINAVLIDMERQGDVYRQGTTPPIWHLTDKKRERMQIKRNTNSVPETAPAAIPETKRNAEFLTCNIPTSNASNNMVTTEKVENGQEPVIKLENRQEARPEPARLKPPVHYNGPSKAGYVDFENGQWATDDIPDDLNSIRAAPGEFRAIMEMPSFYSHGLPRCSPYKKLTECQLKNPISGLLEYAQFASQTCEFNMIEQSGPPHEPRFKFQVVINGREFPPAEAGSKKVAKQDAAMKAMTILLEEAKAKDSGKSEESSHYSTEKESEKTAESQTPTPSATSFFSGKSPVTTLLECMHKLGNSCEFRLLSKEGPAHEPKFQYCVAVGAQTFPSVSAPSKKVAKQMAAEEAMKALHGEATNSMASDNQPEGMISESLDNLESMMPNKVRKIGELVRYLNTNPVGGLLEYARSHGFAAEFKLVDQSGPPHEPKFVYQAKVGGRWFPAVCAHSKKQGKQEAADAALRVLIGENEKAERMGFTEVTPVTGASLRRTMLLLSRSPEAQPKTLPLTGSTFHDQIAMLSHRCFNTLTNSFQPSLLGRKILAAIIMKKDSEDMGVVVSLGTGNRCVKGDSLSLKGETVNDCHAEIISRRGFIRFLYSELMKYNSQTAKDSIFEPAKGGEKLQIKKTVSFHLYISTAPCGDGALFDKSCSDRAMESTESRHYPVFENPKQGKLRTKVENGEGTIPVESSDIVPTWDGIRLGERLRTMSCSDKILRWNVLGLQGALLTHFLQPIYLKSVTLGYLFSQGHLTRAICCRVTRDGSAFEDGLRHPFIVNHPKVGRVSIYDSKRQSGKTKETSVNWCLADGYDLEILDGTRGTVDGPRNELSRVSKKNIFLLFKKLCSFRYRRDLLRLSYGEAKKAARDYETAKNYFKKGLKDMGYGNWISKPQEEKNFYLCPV
As to conditions: editing at intronic +60 site by DRADA alone; no Q/R editing alone, up to 34% Q/R with 293 extract cofactor.

The target in series [4] is recombinant F-WT DRADA protein (full-length 140 kD human DRADA protein carrying an epitope-tag peptide FLAG at the NH2-terminal) (human). This is another data set of the same source.

Like-named read-outs stand apart in the source and are kept apart here.

Regarding “293 nuclear extract (unidentified cofactor protein(s) of 293 human embryonic kidney cells) (pool or library)”, in series [1], the Q/R site editing of synthetic GluR-B RNA (in vitro editing, primer extension assay) turned out to be 14%.
Broadly, the Kd is the equilibrium constant for the complex coming apart. Higher therefore signals a looser complex. Substance 575 bp dsRNA showed a Kd in series [2] of 230 pM. This lies in the sub-nanomolar range.
Substance GluR-B Bmini RNA (745 nt) showed an activity in series [3] of less than 79%.
As for “HeLa nuclear extract (unidentified cofactor protein(s)) (pool or library)”, the Q/R site editing of synthetic GluR-B RNA (in vitro editing, primer extension assay) in series [4] is 63%.
